Data reported in patent US20040096444A1 (DUKE UNIVERSITY, published 2004).

Molecular target: T1, VDAC1 on the surface of human umbilical vein endothelial cells (HUVEC) (human, UniProt P21796 2-283)
T1 construct: Endogenous protein on primary HUVEC; The assays were done on whole cells; also called K5 receptor on HUVEC; plasma membrane VDAC1
Assay: 125I-K5 saturation binding to HUVEC monolayers at 4 C, fit to the Langmuir isotherm
Procedure: Ligand binding analysis. Cells were grown in tissue culture plates until the monolayers were confluent. The cells were washed in HBSS. […] Wells were stripped from the plates and radioactivity was determined. Molecules of ligand bound were calculated after substraction of nonspecific binding measured in the presence of 50 mM p-amino-benzamidine.

T1 sequence (P21796 2-283): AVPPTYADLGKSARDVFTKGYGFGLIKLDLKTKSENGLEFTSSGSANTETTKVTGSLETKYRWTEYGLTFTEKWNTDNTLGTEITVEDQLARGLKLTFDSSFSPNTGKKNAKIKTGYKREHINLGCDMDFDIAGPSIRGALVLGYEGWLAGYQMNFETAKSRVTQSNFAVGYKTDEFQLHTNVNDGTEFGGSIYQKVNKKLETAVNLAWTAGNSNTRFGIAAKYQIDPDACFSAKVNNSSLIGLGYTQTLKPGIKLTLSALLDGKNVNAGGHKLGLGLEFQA

B1: plasminogen kringle 5 (K5), purified from pepsin digestion of human mini-Pg (ligand, UniProt P00747 481-560, looked up)
chain: CMFGNGKGYRGKRATTVTGTPCQDWAAQEPHRHSIFTPETNPRAGLEKNYCRNPDGDVGGPWCYTTNPRKLYDYCDVPQC
modifications: 125I-labeled Bolton Hunter reagent (labelled form used in the binding assays)
notes: domain: kringle 5; Proteolytic fragment (elastase, then pepsin) of purified human Pg 2; also called Pg kringle 5; angiostatin kringle-5
Work on B1 yielded a Kd of 28 nM.
